Results published in patent US20240247080A1, “GLP1/GIP/NPY2 RECEPTOR TRIPLE AGONISTS” (Boehringer Ingelheim International GmbH, priority 2022, published 2024).
Starred links: 1 amine or outer side, 2 acyl side, 3 side chain; linkers in the order of their positions; H or OH if unused. Non-standard residues stand in square brackets, D forms with d. Groups on a side chain read outwards from the residue. No end group written: not given here. *: point of attachment. C20 diacid = O=C(O)CCCCCCCCCCCCCCCCCCC(=O)*; γGlu = O=C(O)[C@H](CCC(=O)[*:2])N[*:1]; εLys = N[C@@H](CCCCN[*:1])C(=O)[*:2]; AEEA = NCCOCCOCC(=O)O; Aib = CC(C)(N)C(=O)O

T1: NPY2 receptor (human (printed as hNPY2R), UniProt P49146 1-381)
T1 sequence (looked up): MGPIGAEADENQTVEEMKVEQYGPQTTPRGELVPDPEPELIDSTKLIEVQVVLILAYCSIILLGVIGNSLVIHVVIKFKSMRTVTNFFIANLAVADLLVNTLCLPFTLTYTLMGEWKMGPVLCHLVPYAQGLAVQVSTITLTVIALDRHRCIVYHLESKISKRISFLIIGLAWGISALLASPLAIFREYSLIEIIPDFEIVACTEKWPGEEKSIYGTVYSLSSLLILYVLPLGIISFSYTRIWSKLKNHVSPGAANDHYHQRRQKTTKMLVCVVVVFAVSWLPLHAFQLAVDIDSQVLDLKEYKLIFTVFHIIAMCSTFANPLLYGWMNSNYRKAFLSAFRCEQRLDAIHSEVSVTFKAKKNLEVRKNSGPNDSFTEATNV

T2: GIP receptor (human (printed as hGIPR), UniProt P48546 22-466)
T2 sequence (looked up): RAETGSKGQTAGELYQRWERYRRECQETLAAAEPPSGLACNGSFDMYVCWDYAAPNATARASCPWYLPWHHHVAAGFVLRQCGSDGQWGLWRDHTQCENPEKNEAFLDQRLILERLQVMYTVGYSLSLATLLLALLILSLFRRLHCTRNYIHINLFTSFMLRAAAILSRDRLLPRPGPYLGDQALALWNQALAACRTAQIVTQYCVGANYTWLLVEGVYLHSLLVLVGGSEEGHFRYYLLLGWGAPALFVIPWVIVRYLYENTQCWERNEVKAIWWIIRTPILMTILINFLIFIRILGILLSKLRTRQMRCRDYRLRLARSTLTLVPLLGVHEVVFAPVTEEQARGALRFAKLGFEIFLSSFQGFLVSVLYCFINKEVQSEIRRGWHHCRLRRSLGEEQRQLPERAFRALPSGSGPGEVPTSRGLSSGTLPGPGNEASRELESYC


Key:
Test in all cases: cell-based or functional assay
NPY2 receptor = target: T1, NPY2 receptor
GLP-1 receptor = GLP-1 receptor (human (printed as hGLP1R), UniProt P43220 24-463)
GIP receptor = target: T2, GIP receptor

| Binder | EC50 hNPY2R 0.5% hP (CreLuc) (NPY2 receptor) [nM] | EC50 hNPY2R 100% hP (CreLuc) (NPY2 receptor) [nM] | EC50 hGLP1R 0.5% hP (CreLuc) (GLP-1 receptor) [nM] | EC50 hGLP1R 100% hP (CreLuc) (GLP-1 receptor) [nM] | EC50 hGIPR 0.5% hP (CreLuc) (GIP receptor) [nM] | EC50 hGIPR 100% hP (CreLuc) (GIP receptor) [nM] |
| --- | --- | --- | --- | --- | --- | --- |
| Y[Aib]EGTFTSDYSI[Aib]LEKQAQ[Aib]AFVEWLIK([εLys-γGlu-γGlu-γGlu-γGlu-γGlu-γGlu-γGlu-C20 diacid])GGPSSGASLRHYYNWLTRQRY-NH2 (also: TFA salt) [Compound 225] | 14.9 | 50.2 | 0.12 | 1.93 | 0.28 | 1.23 |
| Y[Aib]EGTFTSDYSI[Aib]LEKQAE[Aib]AFVQWLIK([AEEA-AEEA-γGlu-γGlu-γGlu-γGlu-C20 diacid])GGPSEGASLRHYYNWLTRQRY-NH2 (also: TFA salt) [Compound 219] | 12.8 | 43.4 | 0.61 | 16.1 | 0.46 | 2.43 |
| Y[Aib]EGTFTSDYSI[Aib]LEKQAQ[Aib]AFVQWLIK([γGlu-γGlu-γGlu-γGlu-γGlu-γGlu-C20 diacid])GGPSEGASLRHYYNWLTRQRY-NH2 (also: TFA salt) [Compound 223] | 13.2 | 57.5 | 0.18 | 4.39 | 0.39 | 3.16 |
| Y[Aib]EGTFTSDYSI[Aib]LEKQAQ[Aib]AFVQWLIK([εLys-γGlu-γGlu-γGlu-γGlu-γGlu-γGlu-γGlu-C20 diacid])GGPSEGASLRHYYNWLTRQRY-NH2 (also: TFA salt) [Compound 224] | 10.6 | 31.6 | 0.13 | 3.24 | 0.43 | 1.35 |
| YXEGTFTSDYSIXLEKQAQXEFVEWLIKGGPSSGASLRHYYNWLTRQRY (Aib at 2, 13, 20; K28 side chain carries C20DA-gGlu-gGlu-gGlu-gGlu-gGlu-gGlu-eLys; C-terminal amide) [Compound 215] | 12.4 | 22.5 | 0.66 | 14 | 0.5 | 2.94 |
| YXEGTFTSDYSIXLEKQAQRAFVEWLIKGGPSSGASLRHYYNWLTRQRY (Aib at 2, 13; D-Arg at 20; K28 side chain carries C20DA-gGlu-gGlu-gGlu-gGlu-gGlu-gGlu-eLys; C-terminal amide) [Compound 216] | 2.81 | 16.8 | 0.31 | 10.6 | 9.45 | 64.2 |
| YXEGTFTSDYSIXLEKQAQXAFVEWLIKGGPSSGASLRHYYNXLTRQRY (Aib at 2, 13, 20, 43; K28 side chain carries C20DA-gGlu-gGlu-gGlu-gGlu-gGlu-gGlu-eLys; C-terminal amide) [Compound 218] | 87.4 | 623 | 0.16 | 3.3 | 0.36 | 2.35 |
| YXEGTFTSDYSIXLEKQAQXAFVQWLIKGGPSEGASLRHYYNWLTRQRY (Aib at 2, 13, 20; K28 side chain carries C20DA-gGlu-gGlu-gGlu-gGlu-gGlu-gGlu-eLys; C-terminal amide) [Compound 220] | 10.2 | 42.6 | 0.17 | 5.28 | 0.29 | 1.83 |
| YXEGTFTSDYSIXLEKQAQXAFVEWLIKGGPSEYVSLRHYYNWLTRQRY (Aib at 2, 13, 20; K28 side chain carries C20DA-gGlu-gGlu-gGlu-gGlu-gGlu-gGlu-eLys; C-terminal amide) [Compound 217] | 18.6 | 35.4 | 1.34 | 17.2 | 0.74 | 8.85 |
| YXEGTFTSDYSIXLEKQAQXAFVEWLIKGGPSEGASLRHYYNWLTRQRY (Aib at 2, 13, 20; NMeQ (N-methyl-L-glutamine) at 47; K28 side chain carries C20DA-gGlu-gGlu-gGlu-gGlu-gGlu-gGlu-eLys; C-terminal amide) [Compound 222] | 13.3 | 41.6 | 0.24 | 4.43 | 0.19 | 1.85 |
| YXEGTFTSDYSIXLEKQAQXAFVEWLIKGGPSSGASLRHYYNWLTRQRY (Aib at 2, 13, 20; K28 side chain carries C20DA-gGlu-gGlu-gGlu-gGlu-gGlu-gGlu-eLys; C-terminal amide) [Compound 221] | 12.4 | 49.3 | 0.11 | 2.23 | 0.14 | 0.92 |

The remaining lines, values ahead:

| EC50 hNPY2R 0.5% hP (CreLuc) (NPY2 receptor) [nM] | EC50 hNPY2R 100% hP (CreLuc) (NPY2 receptor) [nM] | EC50 hGLP1R 0.5% hP (CreLuc) (GLP-1 receptor) [nM] | EC50 hGLP1R 100% hP (CreLuc) (GLP-1 receptor) [nM] | EC50 hGIPR 0.5% hP (CreLuc) (GIP receptor) [nM] | EC50 hGIPR 100% hP (CreLuc) (GIP receptor) [nM] | Binder |
| --- | --- | --- | --- | --- | --- | --- |
| 15.4 | 59.1 | 0.29 | 8.23 | 0.28 | 1.43 | Y[Aib]EGTFTSDYSI[Aib]LEKQAQ[Aib]AFVEWLIK([εLys-γGlu-γGlu-γGlu-γGlu-γGlu-C20 diacid])GGPEEGASLRHYYNWLTRQRY-NH2 (also: TFA salt) [Compound 230] |
| 19.2 | 53 | 0.14 | 3.28 | 0.33 | 1.43 | Y[Aib]EGTFTSDYSI[Aib]LEKQAQ[Aib]AFIEWLIK([AEEA-AEEA-γGlu-γGlu-γGlu-γGlu-C20 diacid])GGPSEGASLRHYYNWLTRQRY-NH2 (also: TFA salt) [Compound 231] |
| 11.4 | 46.2 | 0.24 | 7.6 | 0.43 | 2.6 | Y[Aib]EGTFTSDYSI[Aib]LEKQAQ[Aib]AFVEWLIK([AEEA-AEEA-γGlu-γGlu-γGlu-γGlu-C20 diacid])GGPSEPASLRHYYNWLTRQRY-NH2 (also: TFA salt) [Compound 226] |
| 9.6 | 30.1 | 0.12 | 4.18 | 0.23 | 1.52 | YXEGTFTSDYSIXLEKQAQXAFVQWLIKGGPSEGASLRHYYNWLTRQRY (Aib at 2, 13, 20; K28 side chain carries C20DA-gGlu-gGlu-gGlu-gGlu-gGlu-OEG-OEG; C-terminal amide) [Compound 228] |
| 10.2 | 44.2 | 0.13 | 3.07 | 0.06 | 1.23 | YXEGTFTSDYSIXLEKQAQXAFVEWLIKGGPSEGQSLRHYYNWLTRQRY (Aib at 2, 13, 20; K28 side chain carries C20DA-gGlu-gGlu-gGlu-gGlu-gGlu-gGlu-eLys; C-terminal amide) [Compound 227] |
| 10.8 | 27.2 | 0.1 | 3.31 | 0.22 | 1.42 | YXEGTFTSDYSIXLEKQAQXAFVEWLIKGGPSSGASLRHYYNWLTRQRY (Aib at 2, 13, 20; K28 side chain carries C20DA-gGlu-gGlu-gGlu-gGlu-gGlu-OEG-OEG; C-terminal amide) [Compound 229] |
